Residue numbers refer to the chain shown, from its start. Entries after “also recorded” stand apart in the source; their conditions may differ. Blank lines part the entries; values can stand above or below the molecule they belong to.
Assays:
mouse FSTL1 = biological target: T1, mouse FSTL1 (Mus musculus, UniProt Q62356); assay: ELISA binding activity of purified antibody against mouse FSTL1 (Example 2)
T1 construct: AAA linker + 10xHis (C); made in house; host or cells: Expi293 (transient expression; purified from culture supernatant on HisPur Cobalt Resin)
T1 sequence (Q62356 with tags, fused parts or gaps): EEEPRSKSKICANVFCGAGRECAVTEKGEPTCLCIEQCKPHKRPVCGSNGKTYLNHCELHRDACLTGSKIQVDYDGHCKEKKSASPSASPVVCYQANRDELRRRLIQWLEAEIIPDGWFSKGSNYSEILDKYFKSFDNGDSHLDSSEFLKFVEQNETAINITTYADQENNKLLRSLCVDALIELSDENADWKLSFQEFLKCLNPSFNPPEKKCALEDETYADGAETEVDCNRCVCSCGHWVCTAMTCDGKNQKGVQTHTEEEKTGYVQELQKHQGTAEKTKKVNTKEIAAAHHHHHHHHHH
Method: The reactivity of the obtained antibody clones described above with FSTL1 was evaluated by ELISA under the following conditions.
(Table 2 ELISA conditions for binding activity evaluation of purified antibody) Antibodies used: anti-dinitrophenyl (DNP) antibody (negative control), #5-2, #5-3, #5-8, #5-10, #5-43, #6-55, and #7-34
FIGS. 2 and 3 show results of evaluating binding activity under the condition of Table 3 as to clones differing in screening and antibody purification timings.
Antibodies used: anti-dinitrophenyl (DNP) antibody (negative control), #5-2, #5-3, #5-8, #5-10, #5-43, #6-55, and #7-34
FIGS. 32 and 33 show results of evaluating binding activity under the condition of Table 3 as to clones differing in screening and antibody purification timings.

[1] = test system: GFP-positive and Snail-positive B16-F10 tumor cells; assay: Snail-positive B16-F10 bone metastasis model, intratumoral administration (Example 17); assay type: in vivo, mouse; conditions: intratumoral 10 mg/kg on day 7, assay day 14; FIG. 105A
From the text: Three antibodies were comparatively analyzed for their antitumor effects and an immunosuppression-mitigating effect using bone metastasis models in which mouse melanoma cells B16-F10 forced to express Snail were subcutaneously and intravenously transplanted in C57BL/6N mice.
1. Experiment Group (n=5) • 1. No treatment • 2. Control IgG (anti-DNP) • 3. Anti-FSTL1 Clone #6-55 • 4. Anti-FSTL1 Clone #7-34 • 5. Anti-FSTL1 Clone #8-1
• Day 0: transplantation of GFP-positive and Snail-positive B16-F10 tumor cells (5×10^5 cells subcutaneously & 1×10^5 cells intravenously) • Day 7: intratumoral administration of the antibody (200 μg/0.1 mL/tumor) • Day 14: various assays (with a focus on flow cytometry analysis)
• Effects on the growth of subcutaneous tumor (calculation of tumor volume by tumor size measurement): measured 7, 11, and 14 days after tumor implantation (FIG. 105C) • Effects on bone metastasis (GFP-positive tumor cells in bone marrow) (FIG. 105A) • Effects on the expansion of mesenchymal stem cells (CD45− negative cells in bone marrow and in the spleen) (FIGS. 105B and 105D) • Effects on the expansion of immunosuppressive Treg cells (CD4-positive and Foxp3-positive cells in bone marrow or the spleen) (FIG. 105D) • Other immunosuppressive properties (FIG. 105D)
In order to evaluate in vivo antibody activity, antitumor effects and immunosuppression-mitigating effects were comparatively analyzed using bone metastasis models in which mouse melanoma cells (B16-F10) forced to express Snail were subcutaneously and intravenously transplanted in C57BL/6N mice. […]
It is known that when Snail-positive tumor cells are subcutaneously or intravenously transplanted to mice, the tumor metastasizes preferentially to bone marrow in addition to various organs, and this incurs the expansion of mesenchymal stem cells (MSCs) originating in the bone marrow, thereby systemically and strongly suppressing the induction of antitumor immunity (Cancer Research 73: 6185, 2013). […] The percentage (%) of CD45^− cells in the bone marrow cells was analyzed by flow cytometry.

- binding activity against mouse FSTL1 (mouse FSTL1; FIG. 3B/33B): no binding activity
B1: #5-8: chicken-mouse chimeric anti-FSTL1 antibody clone; variable regions SEQ ID NO: 771 (light), 773 (heavy) (antibody, V domains shown)
VH: AVTLDESGGGLQTPGGGLSLVCKGSGFTFSSFNMFWVRQAPGKGLEWVAGIGKDGVPKYGTAVDGRATISKDNGQSTMRLQLNNLRAEDTGTYFCAKAAGGCSYDWCGIYTGDIDTWGHGTEVIVSS
VL: ASTQPSSVSANPGEAVKITCSGGSGSYYGWYQQKSPGSAPVTVIYNNNQRPSDIPSRFSGSKSGSTATLTITGVQAEDEAVYFCGGYDSSTGHGGIFGAGTTLTVL
modifications: mouse constant regions

B2: #8-1: chicken-mouse chimeric anti-FSTL1 antibody clone; variable regions SEQ ID NO: 791 (light), 793 (heavy) (antibody, V domains shown)
VH: B1 VH with G17A, T61A, T111A
VL: B1 VL with T91S
modifications: mouse constant regions
- binding activity against mouse FSTL1 (mouse FSTL1; FIG. 3B/33B): slightly exhibited binding activity; also recorded: very slightly exhibited binding activity
- bone metastasis (GFP-positive tumor cells in bone marrow) [1]: suppressed

- binding activity against mouse FSTL1 (mouse FSTL1; FIG. 3B/33B): no binding activity
B3: #8-4: chicken-mouse chimeric anti-FSTL1 antibody clone; variable regions SEQ ID NO: 795 (light), 797 (heavy) (antibody, V domains shown)
VH: AVTLDESGGGLQTPGGGLSLVCKGSGFTLSSFNMFWVRQAPGKGLEWVAGVGKDGGTAYGAAVDGRATISRDSGQSTVRLQLNNLRAEDTGTYFCAKAAGGCSYSWCGAYVGDLDAWGHGTEVIVSS
VL: ASSQPSSVSANPGETVKITCSGGSGYYYGWYQQKSPGSAPVTVIYNNDNKPSDIPSRFSGSKSGSTGTLTITGVQVEDEAVYFCGGYDNSGTGIFGAGTTLTVL
modifications: mouse constant regions

B4: #6-55: chicken-mouse chimeric anti-FSTL1 antibody clone; variable regions SEQ ID NO: 783 (light), 785 (heavy) (antibody, V domains shown)
VH: AVTLDESGGGLQTPGGALSLVCKGSGFTFTSVTMQWVRQAPGKGLEWVASVCSGSSTYYAPAVKGRATISRDNGQSTVRLQLSNLRPEDTGTYYCAKIAGRARWSCTSAAYNIDAWGHGTEVIVSS
VL: ASTQPSSVSAIPGETVKITCSGGGNNYGWYQQRSPGSAPVTVIYYNDNRPSNIPSRFSGSTSGSTSTLTITGVQADDEAIYYCGSWDSNTDSGIFGAGTTLTVL
modifications: mouse constant regions
- binding activity against mouse FSTL1 (mouse FSTL1; FIG. 1B/31B): specific and equivalently strong binding activity
- bone metastasis (GFP-positive tumor cells in bone marrow) [1]: suppressed

B5: #7-34: chicken-mouse chimeric anti-FSTL1 antibody clone; variable regions SEQ ID NO: 787 (light), 789 (heavy) (antibody, V domains shown)
VH: AVTLDESGGGLQTPGGGLSLVCKASGFTFSSVTMQWVRQAPGKGLEWVASICSGSSTYYGPAVKGRATISRDNGQNTVRLQLNNLRAEDTATYYCAKIVGRGRWSCTSAAYNIDAWGHGTEVIVSS
VL: B4 VL with I11N, R33K, D47N, D76E, I80V, W86Y, D87E, S88G, N89S
modifications: mouse constant regions
- binding activity against mouse FSTL1 (mouse FSTL1; FIG. 1B/31B): specific and equivalently strong binding activity
- bone metastasis (GFP-positive tumor cells in bone marrow) [1]: no suppressive effect

From US20180021429A1, “ANTICANCER AGENTS OR ANTIMETASTATIC AGENTS USING FSTL1 AND COMBINATION DRUG THEREOF” (PHARMA FOODS INTERNATIONAL CO., LTD., priority 2015, published 2018)
